The values below come from patent US20030073629A1, “Omi and domains thereof that disrupt IAP-caspase interaction” (priority 2001, published 2003).

Experiment [1] concerns the target T1, caspase-9 interaction with XIAP (procaspase-3 activation) (Homo sapiens, UniProt P98170).
T1 construct: caspase-9: endogenous in 293T/HEK293 S100 extract
Put plainly: Procaspase-3 activation in XIAP-containing S100 extracts stimulated with cytochrome c and dATP. Type of experiment: biochemical. As to conditions: S100 extracts with purified XIAP, cytochrome c plus dATP; 10, 50 or 300 ng protein. Here is the method:
FIG. 17 is a scanned image of an autoradiogram, representing SDS-PAGE analysis of ^35S-labeled procaspase-3 following stimulation of 293T S100 extracts (20μg) mixed with purified XIAP (50 ng) with cytochrome c (0.5 μg) plus dATP (1 mM), in the presence of increasing amounts (10, 50, or 300 ng, respectively) of purified mature WT Omi, Omi-ΔAVPS, Omi-S306A, or mature Smac in 10 μl reaction volume. In the fifth lane, S100 extracts were incubated with. 300 ng of WT Omi without XIAP.
Next, it was determined whether Omi, like Smac, promotes caspase-9 activity in HEK293 S100 extracts in the presence of XIAP. To measure the caspase-9 activity in these extracts, ^35S-labeled procaspase-3 was added to the S100 extracts and stimulated the extracts with cytochrome c and dATP. […] These observations indicate that Omi, like Smac, is able to disrupt the interaction of caspase-9 with XIAP in the S100 extracts to promote procaspase-3 activation.

Experiment [2] has as its target T2, GST-BIR3 fusion protein (BIR3 domain of human XIAP) (Homo sapiens, UniProt P98170).
T2 construct: Omi associates directly with the BIR3 domain of XIAP
Put plainly: Interaction of purified recombinant proteins with GST-BIR3 fusion protein (SDS-PAGE, Coomassie). Type of experiment: binding. The settings on record: purified C-terminal His6-tagged recombinant protein; wild type GST-BIR3. An excerpt: (§1) FIGS. 7A and 7B are scanned images of Coomassie stained gels representing SDS-PAGE analysis of purified C-terminal His6-tagged recombinant wild type mature Omi (WT), Omi-ΔAVPS, Omi-S306A, and mature Smac (7A) and recombinant Omi and Smac proteins with GST-BIR1, GST-BIR2, GST-BIR3, or GST-BIR3-E314S fusion proteins (7B).
(§2) To determine whether a recombinant Omi lacking the first 133 residues (mature Omi) can interact with the GST-BIR3 fusion protein, this protein was expressed with a C-terminal His6 tag in bacteria and purified to apparent homogeneity (see FIG. 7B). […] FIGS. 7A and 7B show scanned images of Coomassie stained gels representing SDS-PAGE analysis of purified C-terminal His6-tagged recombinant wild type mature Omi (WT), Omi-ΔAVPS, Omi-S306A, and mature Smac (FIG. 7A) and recombinant Omi and Smac proteins with GST-BIR1, 2, GST-BIR3 or GST-BIR3-E314S fusion proteins (FIG. 7B).

The target in experiment [3] is T3, endogenous XIAP (Homo sapiens, UniProt P98170).
T3 construct: endogenous in cells; host or cells: 293T cells
The experiment in a line: Co-immunoprecipitation with endogenous XIAP in transfected 293T cells. It is filed as cell-based. The settings on record: 293T cells transfected with C-terminal Flag-tagged Omi precursors, XIAP western blot. The source says:
FIG. 9 is a scanned image of a blot representing western blot analysis using an XIAP monoclonal antibody (upper panel) or Flag antibody (middle panel) of 293T cells transfected with constructs encoding C-terminal Flag-tagged Omi wild type or mutant precursors and immunoprecipitated with Flag antibody. The lower panel is a scanned image of a blot representing total extracts probed with the XIAP antibody. Arrows indicate IgG bands.

Experiment [4] deals with Hela cells. The experiment in a line: Staurosporine-induced apoptosis of Hela cells transfected with Omi precursor. The settings on record: for apoptosis potentiation compared to vector-transfected cells: staurosporine, indicated or higher doses. Type of experiment: cell-based, human. Here is the method:
FIG. 18 is a bar graphic representation of the percentages of GFP-positive apoptotic HeLa cells following treatment with the indicated doses of staurosporine for five hours, 24 hours after transfection. The Hela cells were transfected with an empty vector or a construct encoding a C-terminally Flag-tagged Omi precursor together with pEGFP-N1 plasmid (Clontech) at a 4:1 ratio. The AVPS motif in the […] Omi precursor is mutated to a VVAS sequence (SEQ ID NO:10) to prevent binding to IAPs. The Insert represents the expression of mature Omi wild type and Omi S306A mutant in the transfected cells as determined by immunoblotting with Flag antibody.
To determine whether release of Omi can potentiate apoptosis, human Hela cells were transfected with the Omi precursor, and the cells were stimulated with different doses of staurosporine.

In experiment [5] the target is T4, GST-BIR3-E314S mutant (Homo sapiens, UniProt P98170, E314S).
T4 construct: Omi associates directly with the BIR3 domain of XIAP
Put plainly: Interaction of purified recombinant proteins with GST-BIR3-E314S mutant. It is filed as binding. As to conditions: purified C-terminal His6-tagged recombinant protein.
Text: as §1
To confirm that Omi associates directly with the BIR3 domain of XIAP but not with the Smac protein, Smac was depleted from the 293 extracts using a Smac monoclonal antibody. Specifically, 293 cellular extracts were either left untreated (undepleted lane of FIG. 4) or depleted with a Smac antibody (lane depleted of FIG. 4). The undepleted and depleted extracts were incubated with the GST-BIR3 protein and the bound proteins were eluted as above. The eluates were then analyzed by far-western blotting with ^35S-XIAP and by western blotting with the Smac antibody as described above (see FIG. 4, left and right panels, respectively). […] The last lane of each panel in FIG. 4 represents the 293 cellular extracts that were bound to the E314S mutant GST-BIR3 fusion protein. […] The asterisk in FIG. 4 indicates non-specific bands and the arrow indicates the IgG band. […]

The subject of experiment [6] is GST-BIR1, 2 fusion protein. Put plainly: Interaction of purified recombinant proteins with GST-BIR1, 2 fusion protein. Type of experiment: binding, human. As to conditions: purified C-terminal His6-tagged recombinant protein.
Text: as §1, §2

T2 sequence (P98170 238-358 limits assumed): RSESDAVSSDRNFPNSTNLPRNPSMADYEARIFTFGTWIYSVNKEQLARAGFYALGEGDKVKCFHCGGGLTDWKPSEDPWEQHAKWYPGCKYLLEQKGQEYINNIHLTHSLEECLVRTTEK
T1 sequence (P98170 whole entry): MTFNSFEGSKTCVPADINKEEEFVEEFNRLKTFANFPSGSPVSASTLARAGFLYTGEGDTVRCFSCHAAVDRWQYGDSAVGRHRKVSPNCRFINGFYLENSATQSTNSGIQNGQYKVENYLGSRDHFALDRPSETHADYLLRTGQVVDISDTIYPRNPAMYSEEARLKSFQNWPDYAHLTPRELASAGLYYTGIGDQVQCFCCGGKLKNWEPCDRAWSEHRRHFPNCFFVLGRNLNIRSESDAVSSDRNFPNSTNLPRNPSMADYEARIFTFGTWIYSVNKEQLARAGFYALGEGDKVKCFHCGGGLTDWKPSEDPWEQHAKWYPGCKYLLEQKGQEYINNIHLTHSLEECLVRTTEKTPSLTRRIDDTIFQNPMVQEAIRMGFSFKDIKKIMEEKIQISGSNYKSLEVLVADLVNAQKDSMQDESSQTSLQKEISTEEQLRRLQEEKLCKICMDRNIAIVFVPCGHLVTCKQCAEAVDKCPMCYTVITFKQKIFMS
T4 sequence (P98170 238-358 E314S limits assumed): as the sequence (P98170 238-358 limits assumed) above, with E77S counted along it
T3 sequence (P98170 whole entry): as the sequence (P98170 whole entry) above
Sequence of GST-BIR1, 2 fusion protein (P98170 124-240 limits assumed): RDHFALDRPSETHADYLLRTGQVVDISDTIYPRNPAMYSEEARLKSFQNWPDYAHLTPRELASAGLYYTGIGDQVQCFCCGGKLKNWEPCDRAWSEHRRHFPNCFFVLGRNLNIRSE

B1: Omi-ΔAVPS: recombinant mature Omi with deletion of the AVPS motif, C-terminal His6 tag (protein)
chain: PPPASPRSQYNFIADVVEKTAPAVVYIEILDRHPFLGREVPISNGSGFVVAADGLIVTNAHVVADRRRVRVRLLSGDTYEAVVTAVDPVADIATLRIQTKEPLPTLPLGRSADVRQGEFVVAMGSPFALQNTITSGIVSSAQRPARDLGLPQTNVEYIQTDAAIDFGNSGGPLVNLDGEVIGVNTMKVTAGISFAIPSDRLREFLHRGEKKNSSSGISGSQRRYIGVMMLTLSPSILAELQLREPSFPDVQHGVLIHKVILGSPAHRAGLRPGDVILAIGEQMVQNAEDVYEAVRTQSQLAVQIRRGRETLTLYVTPEVTEHHHHHH
In the case of B1, the “promotion of procaspase-3 activation” value in experiment [1] is on record as “abolished its caspase-promoting activity”. For the same molecule, the “interaction with GST-BIR3 fusion protein” value in experiment [2] is reported as “completely abolished its interaction with the GST-BIR3 fusion protein”.

B2: AAAS: C-terminal Flag-tagged Omi precursor mutant with the AVPS motif mutated to AAAS (protein, UniProt O43464 1-458, looked up, variant V135A P136A)
chain: MAAPRAGRGAGWSLRAWRALGGIRWGRRPRLTPDLRALLTSGTSDPRARVTYGTPSLWARLSVGVTEPRACLTSGTPGPRAQLTAVTPDTRTREASENSGTRSRAWLAVALGAGGAVLLLLWGGGRGPPAVLAAAASPPPASPRSQYNFIADVVEKTAPAVVYIEILDRHPFLGREVPISNGSGFVVAADGLIVTNAHVVADRRRVRVRLLSGDTYEAVVTAVDPVADIATLRIQTKEPLPTLPLGRSADVRQGEFVVAMGSPFALQNTITSGIVSSAQRPARDLGLPQTNVEYIQTDAAIDFGNSGGPLVNLDGEVIGVNTMKVTAGISFAIPSDRLREFLHRGEKKNSSSGISGSQRRYIGVMMLTLSPSILAELQLREPSFPDVQHGVLIHKVILGSPAHRAGLRPGDVILAIGEQMVQNAEDVYEAVRTQSQLAVQIRRGRETLTLYVTPEVTE
modifications: full-length C-terminal Flag tag
For B2, the “interaction with endogenous XIAP in vivo” value in experiment [3] is on record as “abolished its interaction with endogenous XIAP”.

B3: active site Omi precursor mutant: S306A Omi precursor with mutant VVAS sequence instead of the AVPS motif (protein, UniProt O43464 1-458, looked up, variant A134V P136A S306A)
chain: MAAPRAGRGAGWSLRAWRALGGIRWGRRPRLTPDLRALLTSGTSDPRARVTYGTPSLWARLSVGVTEPRACLTSGTPGPRAQLTAVTPDTRTREASENSGTRSRAWLAVALGAGGAVLLLLWGGGRGPPAVLAVVASPPPASPRSQYNFIADVVEKTAPAVVYIEILDRHPFLGREVPISNGSGFVVAADGLIVTNAHVVADRRRVRVRLLSGDTYEAVVTAVDPVADIATLRIQTKEPLPTLPLGRSADVRQGEFVVAMGSPFALQNTITSGIVSSAQRPARDLGLPQTNVEYIQTDAAIDFGNAGGPLVNLDGEVIGVNTMKVTAGISFAIPSDRLREFLHRGEKKNSSSGISGSQRRYIGVMMLTLSPSILAELQLREPSFPDVQHGVLIHKVILGSPAHRAGLRPGDVILAIGEQMVQNAEDVYEAVRTQSQLAVQIRRGRETLTLYVTPEVTE
modifications: full-length
Consider B3, for which the “apoptosis potentiation compared to vector-transfected cells” value in experiment [4] (five hours) was “No apoptosis potentiation was observed”.

B4: Omi precursor: C-terminally Flag-tagged full-length Omi precursor (SEQ ID NO:1) expressed from a transfected construct (protein, listed as Homo sapiens)
chain: MAAPRAGRGAGWSLRAWRALGGIRWGRRPRLTPDLRALLTSGTSDPRARVTYGTPSLWARLSVGVTEPRACLTSGTPGPRAQLTAVTPDTRTREASENSGTRSRAWLAVALGAGGAVLLLLWGGGRGPPAVLAAVPSPPPASPRSQYNFIADVVEKTAPAVVYIEILDRHPFLGREVPISNGSGFVVAADGLIVTNAHVVADRRRVRVRLLSGDTYEAVVTAVDPVADIATLRIQTKEPLPTLPLGRSADVRQGEFVVAMGSPFALQNTITSGIVSSAQRPARDLGLPQTNVEYIQTDAAIDFGNSGGPLVNLDGEVIGVNTMKVTAGISFAIPSDRLREFLHRGEKKNSSSGISGSQRRYIGVMMLTLSPSILAELQLREPSFPDVQHGVLIHKVILGSPAHRAGLRPGDVILAIGEQMVQNAEDVYEAVRTQSQLAVQIRRGRETLTLYVTPEVTE
modifications: C-terminal Flag tag
For the molecule B4, the “transfected cells showing signs of apoptosis” value in experiment [4] (500 nM staurosporine, five hours, 24 hours after transfection, vector transfected cells ~20%) was roughly 43%. Besides, the “apoptosis potentiation compared to vector-transfected cells” value in experiment [4] (five hours) is on record as “increased apoptosis was observed”. Besides, the induction of apoptosis entry in experiment [4] (transiently expressed, absence of staurosporine) is “did not induce apoptosis”.

B5: Smac: mitochondrial IAP-binding protein; recombinant mature form with C-terminal His6 tag (protein, UniProt Q9NR28 22-239, looked up)
Diablo IAP-binding …: LCVPVVANFKKRCFSELIRPWHKTVTIGFGVTLCAVPIAQKSEPHSLSSEALMRRAVSLVTDSTSTFLSQTTYALIEAITEYTKAVYTLTSLYRQYTSLLGKMNSEEEDEVWQVIIGARAEMTSKHQEYLKLETTWMTAVGLSEMAAEAAYQTGADQASITARNHIQLVKLQVEEVHQLSRKAETKLAEAQIEELRQKTQEEGEERAESEQEAYLRED
modifications: C-terminal His6 tag
Regarding B5, the “interaction with GST-BIR3-E314S mutant” value in experiment [5] is “not with the GST-BIR3-E314S mutant”. Also, the “interaction with GST-BIR3 fusion protein” value in experiment [2] is listed as “able to interact equally with the wild type GST-BIR3 protein”. In experiment [6], the “interaction with GST-BIR1, 2 fusion protein” value is on record as “able to interact with the GST-BIR1, 2 fusion protein”.

B6: Omi-S306A: recombinant mature Omi with active site Ser306 mutated to Ala, C-terminal His6 tag (protein)
chain: AVPSPPPASPRSQYNFIADVVEKTAPAVVYIEILDRHPFLGREVPISNGSGFVVAADGLIVTNAHVVADRRRVRVRLLSGDTYEAVVTAVDPVADIATLRIQTKEPLPTLPLGRSADVRQGEFVVAMGSPFALQNTITSGIVSSAQRPARDLGLPQTNVEYIQTDAAIDFGNAGGPLVNLDGEVIGVNTMKVTAGISFAIPSDRLREFLHRGEKKNSSSGISGSQRRYIGVMMLTLSPSILAELQLREPSFPDVQHGVLIHKVILGSPAHRAGLRPGDVILAIGEQMVQNAEDVYEAVRTQSQLAVQIRRGRETLTLYVTPEVTEHHHHHH
With B6, the “promotion of procaspase-3 activation” value in experiment [1] is listed as “able to promote procaspase-3 activation in the XIAP-containing S100 extracts almost to the same extent as Smac”. Further, in experiment [2], the “interaction with GST-BIR3 fusion protein” value is reported as “did not affect its interaction with GST-BIR3”.
